Laboratory results taken from PMC2875016.

Experiments:
[1] = biological target: HpNikR mutant M6 (C96S) (Helicobacter pylori); assay: crystal structure
[2] = biological target: HpNikR mutant M5 (H74G, H75G) (Helicobacter pylori); assay: crystal structure

Row | Substance | stoichiometry N [1] | stoichiometry N [2]
1 | HpNikR mutant M6 (C96S) (natural protein) | 4 | –
2 | HpNikR mutant M5 (H74G, H75G) (natural protein) | – | 4
